Measured values as given in patent US20150259664.
Substitutions are numbered along the chain they refer to.

Tests used:
[1] = target: Escherichia coli Release Factor 1 (RF1), wild type
[2] = target: RF1 variant A-13 (N296K/L297R)
[3] = target: T1, RF1 variant A-17 (N296K/L297R/L298K)
T1 chain: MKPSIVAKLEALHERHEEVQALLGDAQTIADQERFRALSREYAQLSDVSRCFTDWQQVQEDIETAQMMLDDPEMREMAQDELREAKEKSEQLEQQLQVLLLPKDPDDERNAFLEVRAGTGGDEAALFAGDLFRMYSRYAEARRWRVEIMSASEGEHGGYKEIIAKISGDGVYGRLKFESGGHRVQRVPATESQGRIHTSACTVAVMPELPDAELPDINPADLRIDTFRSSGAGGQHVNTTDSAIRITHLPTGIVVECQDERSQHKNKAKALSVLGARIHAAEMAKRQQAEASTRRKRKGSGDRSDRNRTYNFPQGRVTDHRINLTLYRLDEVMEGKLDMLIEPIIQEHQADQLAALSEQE

[4] = target: T2, RF1 variant A-18 (N296K/L297R/L298R)
T2 chain: T1 chain with K298R

B1: Escherichia coli Outer Membrane Protein T1 (OmpT1) (protein)
chain: STETLSFTPDNINADISLGTLSGKTKERVYLAEEGGRKVSQLDWKFNNAAIIKGAINWDLMPQISIGAAGWTTLGSRGGNMVDQDWMDSSNPGTWTDESRHPDTQLNYANEFDLNIKGWLLNEPNYRLGLMAGYQESRYSFTARGGSYIYSSEEGFRDDIGSFPNGERAIGYKQRFKMPYIGLTGSYRYEDFELGGTFKYSGWVESSDNDEHYDPGKRITYRSKVKDQNYYSVAVNAGYYVTPNAKVYVEGAWNRVTNKKGNTSLYDHNNNTSDYSKNGAGIENYNFITTAGLKYTF
cleavage in lysed strain SBJY001, 0, 1, 2 and 3 hours (Western blot) [1]: cleavage of unmodified, wild-type RF1 by strain SBJY001 was not detected over the same time periods | cleavage in lysed recombinant strain, 0, 1, 2 and 3 hours (Western blot) [2]: the modified RF1 protein variants were efficiently cleaved at all time points tested by the cell-free extract, as determined by Western blot analysis (data not shown) | cleavage in lysed recombinant strain, 0, 1, 2 and 3 hours (Western blot) [3]: the modified RF1 protein variants were efficiently cleaved at all time points tested by the cell-free extract, as determined by Western blot analysis (data not shown) | cleavage in lysed recombinant strain, 0, 1, 2 and 3 hours (Western blot) [4]: the modified RF1 protein variants were efficiently cleaved at all time points tested by the cell-free extract, as determined by Western blot analysis (data not shown)
